Reference: the supplement of paper PMC9942255
Where “and” joins values, the source holds several entries; their conditions need not be identical. Equal values may be shown once.

Tested on: Bacillus subtilis DB104 (SP-AmyQ fusion secretion)
Experiment: AmyQ secretion efficiency, weighted average sort bin (1 = best secretion, 10 = worst) (bin number (weighted average, 1-10)); higher = lower secretion efficiency
Summary of the method: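 A B. subtilis DB104 library carrying amyE-integrated fusions of designed signal peptides to mature AmyQ was encapsulated at about 0.3 cells per ~65 nL alginate bead with fluorescein-starch and grown about 13 h at room temperature. Following nile red staining, occupied beads were flow-sorted as large particles into 10 equally populated bins by green/red fluorescence ratio, and the bin amplicons were Illumina-sequenced. The secretion score is the read-frequency-weighted average bin number normalised to beads per bin, leaving out low-abundance sequences.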

Sequence	AmyQ secretion efficiency
MLKRTSFVSLFISSAVLLSILLPSGQAHAQSA	1.67
MKFVKRRIRKKRRRLMLSVTSLFALQPSAKAAEH	6.62
MKKVMLATALFLGLTPAGANIADL	6.67
MLCVMMLLFSAIASFPVSFTFPAFATAQAKDQ	7.71
MRKRRKKILALFVLSLGLLSFMVTPVSAASK	2.65
MRPVFPLILSAVLFLSCFFGARQTEASSSKR	3.03
MKKRKVLMAFIICLSLILSVLAAPPSGAKAESV	1.28
MRKKTKNRLISSVLSTVVISSLLFPGAAGASSD	2.47
MMIKQCVICLSLLVFGTTASGTAHAEET	2.45
MAIIIAIIAAVIVIAALITFNVRNADDD	7.51
MKKGIIRFLLVSFVLFFALSTGITGVQVAPA	6.17
MKSKWMSGLLLVAVGFSFTQVMVHARRR	7.53
MFNRLFRVCFLAALIMAFVLTFFVYAQKP	5.95
MFNRLFRVCFLAALIMAFTLPNSIYAQKP	2.87
MKKAFILSAAAAVGLFTFGGVQQASAADD	3.55
MKKQIITATTAVVLGSTLFAGAMSAQSI	1.54
MHLIRAAGAVCLAVVLIAGCRFNEDQHQGEGENT	6.63
MLKKIALTLCPAIVGSLLFFTAPASEHVS	6.03
MRIFKKAVFVIMISFLIATVNVNTCHAAID	3.94
MKRIRIPMTLALGAALTIAPLDEDASAEEN	3.3
MKRSISRRRKCLLITLLTMGGMIASPASAAGT	2.97
MKKWMAGLFLAAAVLLCLLVTSLMVPQQIQGASS	4.31
MKKKLAAGLTASAIVGTTLVVTPAESATI	3.72
MKKVLMAFIICLSLILSVLAAPPSGEKAESV	6.63
MRKRKVVGFLSVLGLAAVFPLTAQAEKA	3.02
MKSKGSIMACLILFSFTITTFINTETISNFSN	7.44

Sequence	AmyQ secretion efficiency
MRKKRVITCVMAASLTLGSLLPAGYATAAPR	1.69
MKWCSICCAAVLLAGGAAQAEAV	3.57
MKRLLLGILCSAAVFLIGAPSRALGAEV	2.5
MKRIRIPMTLALGAALTIAPLSFASTEEN	8.25
MRGKSAVLLSLIMLIAGFLISFEFQM	5.74
MKRIRIPMTLALGAALTIAPLKRKASAEEN	7.5
MRKSLITLGLASVIGTKASAETL	5.6
MKSKWMSRKRRVAVGFSFTQVMVHAGET	6.31
MKKLIMALVILGALGTSYISADSS	6.77 and 6.15
MKIRKQRGYTGLSFGMLISAVPALAAGT	6.92
MKKQIITATTAVVLGSTLFAGAPSAQSI	3.52
MKKKLAAGLTASAIVGTTLVTTISAVTPAEAATI	2.98
MKKWIYVVLVLSIAGIGGFSVHRASS	6.42
MKKIWIGMLAAAMVPKVSLADAA	5.25
MKKKLAAGLTASAIVGTTLVVTPAEEATI	6.94
MKKAAAVLLSLGLVFGFSYGAGHVAESKTK	4.52
MRMLWRSLALCGLALTLADDDCAQAAEP	2.72
MKKWMAGLFLAAAVLLCLMVPQQIQPASS	7.7
MTMLRKIIGWILLLCIIPLFAFTVIASWKEV	5.23
MKKVLMAFIICLSLILRRRKKPPSGAKAESV	7.24
MKRSMLFILVLSFLSIIVAYPIQTNASPM	2.84
MLKKIALTLCPAIVGSLLFFTAPDSAHVS	6.1
MRMLWRSRRKCKRRLTLAPCAQAAEP	5.33
MKRQKQKYLLLGILCSAAVFLIGAPSRALGAEV	3.43
MTTKYSKQSKQLLCFMPAAKIEHTQASLL	7.85
MRNLTKYYTTLAGLCTAAQMVFVTHASAEES	3.01

Sequence	AmyQ secretion efficiency
MTMLRKIIGWILLLCIIPLFAFTVICSGKEV	7.14
MKRMIVRMTLPLLIVCLAFSSFSASARCASE	4.35
MTKKAWFLPLVCVLLISGWLAPAASASSQTT	1.17
MRIFKKAVFVIMISFLIATVNVNTAHIAID	6.89
MMKKLFHSTLIVLLFFSFFGVSPIHAKKQ	2.2
MKRLFMKARRKKKAVVFVFAVKGAPAKAETH	8.85
MKKKQVMLALTAAAGLHSAPAAKAAPL	3.17
MVKKWLIMFAVMLGVLMTFTYSASAVGV	1.93
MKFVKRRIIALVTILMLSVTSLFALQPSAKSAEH	2.64
MSTGTILVIASILLSFLSVLSGGHHESKAFPV	6.64
MKLKKRVSMFRKKKRKCGGLFVTPAKAVKT	7.44
MKKAFILSAAAAVGLFTFSIGGVQQASAKEL	3.67
MKKRLIAPMLLSAASLAFFAMSGSAQDAAY	6.76
MKKARRLSAAAAVGLFTFGGVQQASAKEL	3.35
MGLGKKLSVAVAASFMSLSISLPGVQWAEG	3.19
MLTKRLLTIYIMLLGLIAWFPGATVPAQAEEK	2.86
MKLSVKIAGVLTVAAAAMTAKMYPTAKGN	5.7
MPIKKKVMMCLAVTLVFGSMSFPTLTNKGGFKE	7.01
MFKKLLLATSALTFSLSLVLPLDGHYKAQEV	6.94
MMKVLMAFIICLSLILSVLAAPPSGAKAESV	5
MKVLLSALLLLLFAFEPSCSGKKL	5.53
MGLGKKLSVAVAASFMSLSISLDDEVQAAEG	1.35
MKRLFMKASLVLFAVVFVFAVKGAPKAKAETH	1.9
MKLSVKIAGVLTVAAAAMTAKMYATIKGN	6.84
MKQGKFSRYYKSLLMLTLVVAPKEKAEAASS	6.74
MKKSQYFIVFICFFVLFSVHPIAPAAADS	4.14

Sequence	AmyQ secretion efficiency
MKKGIIRFLLVSFVLFFALSTGITGVQYAPA	4.56
MKKAFLVFLSVVLVTTVFLVKQQESVSGAQAKQL	4.03
MKLKKRVSMGLVALTMCGGLFVTPAKAVKT	2.55
MTMLRKIIGWILLLCIIPLFAFTVIISGKEV	5.66
MKRLLSTLLIGIMLLEDEPSAFAKQD	1.9
MTKKAWFLPLVCVLLISGWLAPAASVSAQTT	2.17
MKKAFLVFLSVVLVTTVFLVKQQESVAQHKQL	4.12
MMSLLSTLLIGIMLLTFAPSAFAKQD	1.88
MKLAKRVSALTPSTTLAITGKAKEL	7.09
MKKGIIRFLLVSFVLFFALSTGITGVQFAPA	7.18
MKTKTFLFIFSAILTLSIFAPNETFAQTA	2.73
MKKVMLATALFLGLTPAGVNAADL	4.08
MNKLKRLSMLTVMIASVFIFSSHTLAAQY	1.95
MRPVFPLILSAVLFLSCFFGARQTEASISKR	3
MLKKKWMVGLLAGCLAAGVALALSGFSYNAFATEN	5.02
MKRLTLVCSIVFILRKLFYRLKIGTIPIQKLPVYKASAKTA	6.99
MIAYFGKCLLLVTIMFLGVLFGMQQVNHG	6.78
MFNRLFRVCFLAALIMAFTLPNSVYGQKP	2.74
MNSMTIWTIILGALLVCCIAVAYTLTKSQAGASSS	6.92
MKKLLAAGIIGLLTVSIASPCFAAEK	2.42
MKKKLAAGLTASAIVGTTLVVTPAEAADE	3.03
MFKKHTISLLIIFLLASAVLAKPIEAHDD	3.1
MKKRLIAPMLLSAASLAFFAMSGSAQIAAY	8.39
MRSYIKVLTMCFLGLPTALADNS	3.96
MNKLKRLSMSKSRGYSVFIFSSHALAAQY	6.58
MKKRLIAPMLLSAASLAFFAMFIIGSTAQAAAY	4.67

Sequence	AmyQ secretion efficiency
MKKKQVMLALTAAAGLGLTALHSAPAFKAAPL	6.7
MLCVMMLLFSAIASFPVSKQAKDQ	7.19
MKVCQKSIVRFLVSLIIGTFVISVPFMANAQSE	1.52
MKKKKAGLFLAAAVLLCLMVPQQIQGASS	4.01
MKKKQVMLRKKKAAGLGLTALHSAPAAKAAPL	7.14
MKRIRIPMTYRYQSALTIAPLSFASAEEN	7.35
MKQIKKKRTSFMLLAMTGQTALAKDV	6.55
MKSKGSIMACLILFSFTITTFINTETISDFSN	6.98
MNKKYFVLIVCIIFTSALFPTDKKVTAAQG	1.1
MKKIVSILFMFGLVMGFSQFQPSTVFAAKK	2.86
MKKRLIAPMLLSAASLAFFAMSGSYQAAAY	6.45
MKRKKCSICCAAVLLAGGAAQAEAV	6.17
MRKAVLLSLIMLIAGFLISFSFQM	7.21
MLKKKWMTGGTKRCLAAGGFSYNAFATEN	7.54
MKRLFMKASLVLFAVVFVFAVKGAPAKGETH	2.19
MKKKQVMLALTAAAGLGLTALHSAPAAKAAPD	2.15
MKKCLLFLTTIALILRKRRKKAFAKNT	7.29
MKRFLIGAGVAAVILSGWFIADHQTHVQEM	6.76
MKKRKRRNFKRQGTQYKGLALMISLVPADVLAKST	7.46
MHLIRAAGAVCLAVVLIAGCRFNEDQHQAEPENT	6.25
MFNRLFRVCFLAALIMAFTLPNSCYAQKP	2.79
MRKKRVITCVMAASLTLGSLLAAAIATAKED	3.82
MKKIMSAFVGMVLLTIFCFSPQASAEED	2.74
